± gives the standard deviation of the averaged measurements.
Assays:
[1] = tested on: MCF7; assay: percentage of EdU-negative (G0-arrested) nuclei per well, 72 h; higher = more G0 arrest; conditions: reference: sequence is the full UniProt precursor, the tested protein was the secreted form or ectodomain
[2] = tested on: hTERT-HMEC; assay: as above; conditions: reference: sequence is the full UniProt precursor, the tested protein was the secreted form or ectodomain
[3] = protein concentration 0.0059525 µM
[4] = protein concentration 0.059525 µM
[5] = protein concentration 0.0174286 µM
[6] = protein concentration 0.174286 µM
[7] = protein concentration 0.00592 µM
[8] = protein concentration 0.0592 µM
[9] = protein concentration 0.0257143 µM
[10] = protein concentration 0.257143 µM
[11] = protein concentration 0.0140425 µM
[12] = protein concentration 0.140425 µM
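Also: secreted proteins added to cultured cells, EdU pulse at the end, nuclei found by Hoechst imaging, EdU status from nuclear versus surrounding ring intensity ratio, PBS as neutral control.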

## MGVPFFSSLRCMVDLGPCWAGGLTAEMKLLLALAGLLAILATPQPSEGAAPAVLGEVDTSLVLSSMEEAKQLVDKAYKERRESIKQRLRSGSASPMELLSYFKQPVAATRTAVRAADYLHVALDLLERKLRSLWRRPFNVTDVLTPAQLNVLSKSSGCAYQDVGVTCPEQDKYRTITGMCNNRRSPTLGASNRAFVRWLPAEYEDGFSLPYGWTPGVKRNGFPVALARAVSNEIVRFPTDQLTPDQERSLMFMQWGQLLDHDLDFTPEPAARASFVTGVNCETSCVQQPPCFPLKIPPNDPRIKNQADCIPFFRSCPACPGSNITIRNQINALTSFVDASMVYGSEEPLARNLRNMSNQLGLLAVNQRFQDNGRALLPFDNLHDDPCLLTNRSARIPCFLAGDTRSSEMPELTSMHTLLLREHNRLATELKSLNPRWDGERLYQEARKIVGAMVQIITYRDYLPLVLGPTAMRKYLPTYRSYNDSVDPRIANVFTNAFRYGHTLIQPFMFRLDNRYQPMEPNPRVPLSRVFFASWRVVLEGGIDPILRGLMATPAKLNRQNQIAVDEIRERLFEQVMRIGLDLPALNMQRSRDHGLPGYNAWRRFCGLPQPETVGQLGTVLRNLKLARKLMEQYGTPNNIDIWMGGVSEPLKRKGRVGPLLACIIGTQFRKLRDGDRFWWENEGVFSMQQRQALAQISLPRIICDNTGITTVSKNNIFMSNSYPRDFVNCSTLPALNLASWREAS
[1]; [3]
  percentage of EdU-negative: 24.8 ± 1.3%
[1]; [4]
  percentage of EdU-negative: 26.8 ± 0.65%
[2]; [3]
  percentage of EdU-negative: 5.02 ± 0.23%
[2]; [4]
  percentage of EdU-negative: 4.74 ± 0.28%

## MGWLPLLLLLTQCLGVPGQRSPLNDFQVLRGTELQHLLHAVVPGPWQEDVADAEECAGRCGPLMDCRAFHYNVSSHGCQLLPWTQHSPHTRLRRSGRCDLFQKKDYVRTCIMNNGVGYRGTMATTVGGLPCQAWSHKFPNDHKYTPTLRNGLEENFCRNPDGDPGGPWCYTTDPAVRFQSCGIKSCREAACVWCNGEEYRGAVDRTESGRECQRWDLQHPHQHPFEPGKFLDQGLDDNYCRNPDGSERPWCYTTDPQIEREFCDLPRCGSEAQPRQEATTVSCFRGKGEGYRGTANTTTAGVPCQRWDAQIPHQHRFTPEKYACKDLRENFCRNPDGSEAPWCFTLRPGMRAAFCYQIRRCTDDVRPQDCYHGAGEQYRGTVSKTRKGVQCQRWSAETPHKPQFTFTSEPHAQLEENFCRNPDGDSHGPWCYTMDPRTPFDYCALRRCADDQPPSILDPPDQVQFEKCGKRVDRLDQRRSKLRVVGGHPGNSPWTVSLRNRQGQHFCGGSLVKEQWILTARQCFSSCHMPLTGYEVWLGTLFQNPQHGEPSLQRVPVAKMVCGPSGSQLVLLKLERSVTLNQRVALICLPPEWYVVPPGTKCEIAGWGETKGTGNDTVLNVALLNVISNQECNIKHRGRVRESEMCTEGLLAPVGACEGDYGGPLACFTHNCWVLEGIIIPNRVCARSRWPAVFTRVSVFVDWIHKVMRLG [G3XAK1]
[1]; [5]
  percentage of EdU-negative: 22.6 ± 1.9%
[1]; [6]
  percentage of EdU-negative: 27.79 ± 0.11%
[2]; [5]
  percentage of EdU-negative: 4.79 ± 0.57%
[2]; [6]
  percentage of EdU-negative: 5.55 ± 0.076%

## MHLIDYLLLLLVGLLALSHGQLHVEHDGESCSNSSHQQILETGEGSPSLKIAPANADFAFRFYYLIASETPGKNIFFSPLSISAAYAMLSLGACSHSRSQILEGLGFNLTELSESDVHRGFQHLLHTLNLPGHGLETRVGSALFLSHNLKFLAKFLNDTMAVYEAKLFHTNFYDTVGTIQLINDHVKKETRGKIVDLVSELKKDVLMVLVNYIYFKALWEKPFISSRTTPKDFYVDENTTVRVPMMLQDQEHHWYLHDRYLPCSVLRMDYKGDATVFFILPNQGKMREIEEVLTPEMLMRWNNLLRKRNFYKKLELHLPKFSISGSYVLDQILPRLGFTDLFSKWADLSGITKQQKLEASKSFHKATLDVDEAGTEAAAATSFAIKFFSAQTNRHILRFNRPFLVVIFSTSTQSVLFLGKVVDPTKP
[1]; protein concentration 0.022 µM
  percentage of EdU-negative: 25 ± 1.3%
[1]; protein concentration 0.22 µM
  percentage of EdU-negative: 28.9 ± 0.99%
[2]; protein concentration 0.022 µM
  percentage of EdU-negative: 4.571 ± 0.028%
[2]; protein concentration 0.22 µM
  percentage of EdU-negative: 4.09 ± 0.62%

## MHLLGFFSVACSLLAAALLPGPREAPAAAAAFESGLDLSDAEPDAGEATAYASKDLEEQLRSVSSVDELMTVLYPEYWKMYKCQLRKGGWQHNREQANLNSRTEETIKFAAAHYNTEILKSIDNEWRKTQCMPREVCIDVGKEFGVATNTFFKPPCVSVYRCGGCCNSEGLQCMNTSTSYLSKTLFEITVPLSQGPKPVTISFANHTSCRCMSKLDVYRQVHSIIRRSLPATLPQCQAANKTCPTNYMWNNHICRCLAQEDFMFSSDAGDDSTDGFHDICGPNKELDEETCQCVCRAGLRPASCGPHKELDRNSCQCVCKNKLFPSQCGANREFDENTCQCVCKRTCPRNQPLNPGKCACECTESPQKCLLKGKKFHHQTCSCYRRPCTNRQKACEPGFSYSEEVCRCVPSYWKRPQMS
[1]; [7]
  percentage of EdU-negative: 25.4 ± 0.75%
[1]; [8]
  percentage of EdU-negative: 25.31 ± 0.24%
[2]; [7]
  percentage of EdU-negative: 5.07 ± 0.77%
[2]; [8]
  percentage of EdU-negative: 5.93 ± 0.55%

## MHLLLFQLLVLLPLGKTTRHQDGRQNQSSLSPVLLPRNQRELPTGNHEEAEEKPDLFVAVPHLVATSPAGEGQRQREKMLSRFGRFWKKPEREMHPSRDSDSEPFPPGTQSLIQPIDGMKMEKSPLREEAKKFWHHFMFRKTPASQGVILPIKSHEVHWETCRTVPFSQTITHEGCEKVVVQNNLCFGKCGSVHFPGAAQHSHTSCSHCLPAKFTTMHLPLNCTELSSVIKVVMLVEECQCKVKTEHEDGHILHAGSQDSFIPGVSA
[1]; [9]
  percentage of EdU-negative: 23.4 ± 3.4%
[1]; [10]
  percentage of EdU-negative: 24.2 ± 0.59%
[2]; [9]
  percentage of EdU-negative: 4.67 ± 0.26%
[2]; [10]
  percentage of EdU-negative: 5.44 ± 1.3%

## MHLRLISWLFIILNFMEYIGSQNASRGRRQRRMHPNVSQGCQGGCATCSDYNGCLSCKPRLFFALERIGMKQIGVCLSSCPSGYYGTRYPDINKCTKCKADCDTCFNKNFCTKCKSGFYLHLGKCLDNCPEGLEANNHTMECVSIVHCEVSEWNPWSPCTKKGKTCGFKRGTETRVREIIQHPSAKGNLCPPTNETRKCTVQRKKCQKGERGKKGRERKRKKPNKGESKEAIPDSKSLESSKEIPEQRENKQQQKKRKVQDKQKSVSVSTVH [Q9BXY4]
[1]; [11]
  percentage of EdU-negative: 23.8 ± 0.26%
[1]; [12]
  percentage of EdU-negative: 24.3 ± 1.6%
[2]; [11]
  percentage of EdU-negative: 4.43 ± 0.65%
[2]; [12]
  percentage of EdU-negative: 5.27 ± 0.29%
